Laboratory results: patent US20240117074A1 (published 2024)

How the values were obtained:
[1] = target: T1, human CEACAM6, recombinant soluble (hCEACAM-6, R&D Systems #3934-CM-050) (human, UniProt P40199 35-320); experiment: ELISA, coated CEACAM family protein
T1 sequence (looked up): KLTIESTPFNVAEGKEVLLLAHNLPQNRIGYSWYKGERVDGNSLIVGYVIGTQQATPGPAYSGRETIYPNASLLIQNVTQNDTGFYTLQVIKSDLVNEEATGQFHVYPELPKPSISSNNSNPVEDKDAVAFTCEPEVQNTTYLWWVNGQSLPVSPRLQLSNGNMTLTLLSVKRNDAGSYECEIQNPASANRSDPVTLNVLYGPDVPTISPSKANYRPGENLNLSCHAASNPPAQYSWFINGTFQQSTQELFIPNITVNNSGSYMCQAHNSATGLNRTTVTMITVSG
Protocol: (§1) 96-well plates were coated with 0.5 μg/mL antigen, hCEACAM-1 (2244-CM-050, R&D Systems), hCEACAM-5 (4128-CM-050, R&D Systems), hCEACAM-6 (3934-CM-050, R&D Systems) or CEACAM-8 (9639-CM-050, R&D Systems) in PBS over night at 4° C. After washing in PBS/0.05% Tween 20 (PBST), the plates were blocked with PBST, 2% BSA for at least 30 minutes at room temperature before a second round of washing. RUBY bsAbs, diluted in PBST, 0.5% BSA, were then added and allowed to bind for at least 1 hour at room temperature. […] Finally, a final round of washing was performed and bound complexes detected using SuperSignal Pico Luminescent as substrate and luminescence signals were measured using Fluostar Optima.

[2] = target: T2, CEACAM8, recombinant soluble (CEACAM-8, R&D Systems #9639-CM-050) (UniProt P31997 35-320, limits assumed); experiment: ELISA, coated CEACAM family protein
T2 sequence (looked up): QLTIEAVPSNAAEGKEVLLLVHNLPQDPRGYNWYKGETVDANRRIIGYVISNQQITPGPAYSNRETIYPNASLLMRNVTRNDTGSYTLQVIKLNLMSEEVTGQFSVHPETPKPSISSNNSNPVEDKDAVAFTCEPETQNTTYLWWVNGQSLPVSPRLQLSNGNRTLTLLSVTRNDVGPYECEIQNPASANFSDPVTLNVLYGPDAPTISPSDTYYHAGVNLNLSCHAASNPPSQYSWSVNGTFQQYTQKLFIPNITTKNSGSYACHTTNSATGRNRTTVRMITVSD
Protocol: as §1

[3] = target: T3, human CEACAM1, recombinant soluble (hCEACAM-1, R&D Systems #2244-CM-050) (human, UniProt P13688 35-428); experiment: ELISA, coated CEACAM family protein
T3 sequence (looked up): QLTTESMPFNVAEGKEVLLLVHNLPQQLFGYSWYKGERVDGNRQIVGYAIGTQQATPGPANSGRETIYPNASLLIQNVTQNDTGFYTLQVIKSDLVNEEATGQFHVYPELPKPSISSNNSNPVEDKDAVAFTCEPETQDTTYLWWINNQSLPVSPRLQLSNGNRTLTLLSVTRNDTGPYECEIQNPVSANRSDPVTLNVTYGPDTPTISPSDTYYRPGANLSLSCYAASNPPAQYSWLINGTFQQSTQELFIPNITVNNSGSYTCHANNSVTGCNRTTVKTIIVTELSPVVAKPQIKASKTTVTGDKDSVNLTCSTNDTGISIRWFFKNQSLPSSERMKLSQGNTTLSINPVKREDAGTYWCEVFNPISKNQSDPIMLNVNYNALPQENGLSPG
Protocol: as §1

[4] = target: T4, biotinylated human CD40-mouse Fc (Ancell #504-030) (human, UniProt P25942 21-193, biotinylated); experiment: dual target ELISA: CEACAM5 coated, biotinylated hCD40-muIg detection
T4 construct: Bought fusion protein; also called hCD40-muIg; CD40mFc-biotin; not shown: mouse Ig Fc of the bought fusion protein
Protocol: ELISA plates were coated with human EpCAM, bsAb was added followed by detection using goat anti human-kappa light chain-HRP.
as §1

T4 sequence (P25942 21-193): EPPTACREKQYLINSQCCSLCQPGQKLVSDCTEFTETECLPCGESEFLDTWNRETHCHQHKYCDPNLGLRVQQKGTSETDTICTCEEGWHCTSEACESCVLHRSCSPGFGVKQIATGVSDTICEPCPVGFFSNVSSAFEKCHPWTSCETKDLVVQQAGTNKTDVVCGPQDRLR

binding result [1]: no binding
binding result [2]: no binding
binding result [3]: no binding
binding result [4]: binds
B1: Multi48 (bispecific antibody)
heavy 1: not shown
light: DIQMTQSPSSLSASVGDRVTITCRASQSISSYLNWYQEKPGKAPKLLIYAASSLQSGVPSRFSGSGSGTDFTLTISSLQPEDFATYYCQQYGRNPPTFGQGTKLEIKRTVAAPSVFIFPPSDEQLKSGTASVVCYLNNFYPREAKVQWKVDNALQSGNSQESVTEQDSKDSTYSLWSTLTLSKADYEKHKVYACEVTHQGLSSPVTKSFNRGEC
heavy 2: EVQLLESGGGLVQPGGSLRLSCAASGFTFGDHAMSWVREAPGKGLEWVSAISGYGHSTGYADSVKGRFTISRDNSKNTLYLQMNSLRAEDTAVYYCARNHYRVGLDYWGQGTLVTVSSASTKGPSVFPLAPSSKSTSGGTAALGCLVKDYFPEPVTVSWNSGALTSGVHTFPAVLQSSGLYSLTSVVEVPSSSLGTQTYICNVNHKPSNTKVDKKVEPKSC
notes: copies: 2 + 2 + 2
